Patent US20050118674A1, “Engineering of Controlled Deamidation Rates in Peptides, Proteins, and Similar Structures” (priority 2003, published 2005)
Values belong to the substance of their own block, whether it stands above or below them.

Experiment: First-order nonenzymatic deamidation of pentapeptides in Tris buffer
Assay type: physicochemical
Conditions: 0.15 M Tris HCl; for First-Order Deamidation Halftimes of GlyXxxAsnYyyGly: pH 7.4, 37.0° C., Asn pentapeptides; for First-Order Deamidation Halftimes of GlyXxxGlnYyyGly: pH 7.4, 37.0 ° C., Gln pentapeptides, 52 values measured, rest derived from surface fitting
Summary of the method: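 Pentapeptides containing Asn or Gln in varied flanking sequences incubated at 37° C., pH 7.4, 0.15 M Tris buffer; first-order deamidation rates measured. Some Asn values estimated from remaining data; many Gln values derived from surface fitting rather than measured.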

Substance: GlyPheAsnLeuGly (GFNLG; printed: GlyPheAsnLeuGly)
First-Order Deamidation Halftimes of GlyXxxAsnYyyGly: 118 days

Substance: GlyPheAsnLysGly (GFNKG; printed: GlyPheAsnLysGly)
First-Order Deamidation Halftimes of GlyXxxAsnYyyGly: 58.2 days

Substance: GlyPheAsnMetGly (GFNMG; printed: GlyPheAsnMetGly)
First-Order Deamidation Halftimes of GlyXxxAsnYyyGly: 58.6 days

Substance: GlyPheAsnPheGly (GFNFG; printed: GlyPheAsnPheGly)
First-Order Deamidation Halftimes of GlyXxxAsnYyyGly: 69.5 days

Substance: GlyPheAsnProGly (GFNPG; printed: GlyPheAsnProGly)
First-Order Deamidation Halftimes of GlyXxxAsnYyyGly: 7990 days

Substance: GlyPheAsnSerGly (GFNSG; printed: GlyPheAsnSerGly)
First-Order Deamidation Halftimes of GlyXxxAsnYyyGly: 18.1 days

Substance: GlyPheAsnThrGly (GFNTG; printed: GlyPheAsnThrGly)
First-Order Deamidation Halftimes of GlyXxxAsnYyyGly: 39.0 days

Substance: GlyPheAsnTrpGly (GFNWG; printed: GlyPheAsnTrpGly)
First-Order Deamidation Halftimes of GlyXxxAsnYyyGly: 102 days

Substance: GlyPheAsnTyrGly (GFNYG; printed: GlyPheAsnTyrGly)
First-Order Deamidation Halftimes of GlyXxxAsnYyyGly: 75.1 days

Substance: GlyPheAsnValGly (GFNVG; printed: GlyPheAsnValGly)
First-Order Deamidation Halftimes of GlyXxxAsnYyyGly: 203 days

Substance: GlyPheGlnAlaGly (GFQAG; printed: GlyPheGlnAlaGly)
First-Order Deamidation Halftimes of GlyXxxGlnYyyGly: 6300 days

Substance: GlyPheGlnArgGly (GFQRG; printed: GlyPheGlnArgGly)
First-Order Deamidation Halftimes of GlyXxxGlnYyyGly: 7200 days

Substance: GlyPheGlnAspGly (GFQDG; printed: GlyPheGlnAspGly)
First-Order Deamidation Halftimes of GlyXxxGlnYyyGly: 8200 days

Substance: GlyPheGlnCysGly (GFQCG; printed: GlyPheGlnCysGly)
First-Order Deamidation Halftimes of GlyXxxGlnYyyGly: 2000 days

Substance: GlyPheGlnGluGly (GFQEG; printed: GlyPheGlnGluGly)
First-Order Deamidation Halftimes of GlyXxxGlnYyyGly: 8100 days

Substance: GlyPheGlnGlyGly (GFQGG; printed: GlyPheGlnGlyGly)
First-Order Deamidation Halftimes of GlyXxxGlnYyyGly: 660 days

Substance: GlyPheGlnHisGly (GFQHG; printed: GlyPheGlnHisGly)
First-Order Deamidation Halftimes of GlyXxxGlnYyyGly: 6200 days

Substance: GlyPheGlnIleGly (GFQIG; printed: GlyPheGlnIleGly)
First-Order Deamidation Halftimes of GlyXxxGlnYyyGly: 6400 days

Substance: GlyPheGlnLeuGly (GFQLG; printed: GlyPheGlnLeuGly)
First-Order Deamidation Halftimes of GlyXxxGlnYyyGly: 6400 days

Substance: GlyPheGlnLysGly (GFQKG; printed: GlyPheGlnLysGly)
First-Order Deamidation Halftimes of GlyXxxGlnYyyGly: 6200 days

Substance: GlyPheGlnMetGly (GFQMG; printed: GlyPheGlnMetGly)
First-Order Deamidation Halftimes of GlyXxxGlnYyyGly: 5100 days

Substance: GlyPheGlnPheGly (GFQFG; printed: GlyPheGlnPheGly)
First-Order Deamidation Halftimes of GlyXxxGlnYyyGly: 8200 days

Substance: GlyPheGlnProGly (GFQPG; printed: GlyPheGlnProGly)
First-Order Deamidation Halftimes of GlyXxxGlnYyyGly: 10000 days

Substance: GlyPheGlnSerGly (GFQSG; printed: GlyPheGlnSerGly)
First-Order Deamidation Halftimes of GlyXxxGlnYyyGly: 5900 days

Substance: GlyPheGlnThrGly (GFQTG; printed: GlyPheGlnThrGly)
First-Order Deamidation Halftimes of GlyXxxGlnYyyGly: 5300 days

Substance: GlyPheGlnTrpGly (GFQWG; printed: GlyPheGlnTrpGly)
First-Order Deamidation Halftimes of GlyXxxGlnYyyGly: 16000 days

Substance: GlyPheGlnTyrGly (GFQYG; printed: GlyPheGlnTyrGly)
First-Order Deamidation Halftimes of GlyXxxGlnYyyGly: 12000 days

Substance: GlyPheGlnValGly (GFQVG; printed: GlyPheGlnValGly)
First-Order Deamidation Halftimes of GlyXxxGlnYyyGly: 7100 days

Substance: GlyProAsnAlaGly (GPNAG; printed: GlyProAsnAlaGly)
First-Order Deamidation Halftimes of GlyXxxAsnYyyGly: 31.8 days

First-Order Deamidation Halftimes of GlyXxxAsnYyyGly: 43.7 days
Substance: GlyProAsnAmCysGly

Substance: GlyProAsnArgGly (GPNRG; printed: GlyProAsnArgGly)
First-Order Deamidation Halftimes of GlyXxxAsnYyyGly: 72.9 days

Substance: GlyProAsnAspGly (GPNDG; printed: GlyProAsnAspGly)
First-Order Deamidation Halftimes of GlyXxxAsnYyyGly: 48.6 days

Substance: GlyProAsnCysGly (GPNCG; printed: GlyProAsnCysGly)
First-Order Deamidation Halftimes of GlyXxxAsnYyyGly: 60.0 days

Substance: GlyProAsnGluGly (GPNEG; printed: GlyProAsnGluGly)
First-Order Deamidation Halftimes of GlyXxxAsnYyyGly: 92.0 days

Substance: GlyProAsnGlyGly (GPNGG; printed: GlyProAsnGlyGly)
First-Order Deamidation Halftimes of GlyXxxAsnYyyGly: 1.18 days

Substance: GlyProAsnHisGly (GPNHG; printed: GlyProAsnHisGly)
First-Order Deamidation Halftimes of GlyXxxAsnYyyGly: 12.8 days

Substance: GlyProAsnIleGly (GPNIG; printed: GlyProAsnIleGly)
First-Order Deamidation Halftimes of GlyXxxAsnYyyGly: 455 days

Substance: GlyProAsnLeuGly (GPNLG; printed: GlyProAsnLeuGly)
First-Order Deamidation Halftimes of GlyXxxAsnYyyGly: 181 days

Substance: GlyProAsnLysGly (GPNKG; printed: GlyProAsnLysGly)
First-Order Deamidation Halftimes of GlyXxxAsnYyyGly: 67.8 days

Substance: GlyProAsnMetGly (GPNMG; printed: GlyProAsnMetGly)
First-Order Deamidation Halftimes of GlyXxxAsnYyyGly: 78.4 days

Substance: GlyProAsnPheGly (GPNFG; printed: GlyProAsnPheGly)
First-Order Deamidation Halftimes of GlyXxxAsnYyyGly: 100 days

Substance: GlyProAsnProGly (GPNPG; printed: GlyProAsnProGly)
First-Order Deamidation Halftimes of GlyXxxAsnYyyGly: 6590 days

Substance: GlyProAsnSerGly (GPNSG; printed: GlyProAsnSerGly)
First-Order Deamidation Halftimes of GlyXxxAsnYyyGly: 18.9 days

Substance: GlyProAsnThrGly (GPNTG; printed: GlyProAsnThrGly)
First-Order Deamidation Halftimes of GlyXxxAsnYyyGly: 63.1 days

Substance: GlyProAsnTrpGly (GPNWG; printed: GlyProAsnTrpGly)
First-Order Deamidation Halftimes of GlyXxxAsnYyyGly: 122 days

Substance: GlyProAsnTyrGly (GPNYG; printed: GlyProAsnTyrGly)
First-Order Deamidation Halftimes of GlyXxxAsnYyyGly: 114 days

Substance: GlyProAsnValGly (GPNVG; printed: GlyProAsnValGly)
First-Order Deamidation Halftimes of GlyXxxAsnYyyGly: 364 days

Substance: GlyProGlnAlaGly (GPQAG; printed: GlyProGlnAlaGly)
First-Order Deamidation Halftimes of GlyXxxGlnYyyGly: 4700 days

Substance: GlyProGlnArgGly (GPQRG; printed: GlyProGlnArgGly)
First-Order Deamidation Halftimes of GlyXxxGlnYyyGly: 6400 days

Substance: GlyProGlnAspGly (GPQDG; printed: GlyProGlnAspGly)
First-Order Deamidation Halftimes of GlyXxxGlnYyyGly: 7200 days

Substance: GlyProGlnCysGly (GPQCG; printed: GlyProGlnCysGly)
First-Order Deamidation Halftimes of GlyXxxGlnYyyGly: 1600 days

Substance: GlyProGlnGluGly (GPQEG; printed: GlyProGlnGluGly)
First-Order Deamidation Halftimes of GlyXxxGlnYyyGly: 6800 days

Substance: GlyProGlnGlyGly (GPQGG; printed: GlyProGlnGlyGly)
First-Order Deamidation Halftimes of GlyXxxGlnYyyGly: 630 days

Substance: GlyProGlnHisGly (GPQHG; printed: GlyProGlnHisGly)
First-Order Deamidation Halftimes of GlyXxxGlnYyyGly: 5200 days

Substance: GlyProGlnIleGly (GPQIG; printed: GlyProGlnIleGly)
First-Order Deamidation Halftimes of GlyXxxGlnYyyGly: 6000 days

Substance: GlyProGlnLeuGly (GPQLG; printed: GlyProGlnLeuGly)
First-Order Deamidation Halftimes of GlyXxxGlnYyyGly: 5800 days

Substance: GlyProGlnLysGly (GPQKG; printed: GlyProGlnLysGly)
First-Order Deamidation Halftimes of GlyXxxGlnYyyGly: 5500 days

Substance: GlyProGlnMetGly (GPQMG; printed: GlyProGlnMetGly)
First-Order Deamidation Halftimes of GlyXxxGlnYyyGly: 4500 days

Substance: GlyProGlnPheGly (GPQFG; printed: GlyProGlnPheGly)
First-Order Deamidation Halftimes of GlyXxxGlnYyyGly: 7300 days

Substance: GlyProGlnProGly (GPQPG; printed: GlyProGlnProGly)
First-Order Deamidation Halftimes of GlyXxxGlnYyyGly: 8900 days

Substance: GlyProGlnSerGly (GPQSG; printed: GlyProGlnSerGly)
First-Order Deamidation Halftimes of GlyXxxGlnYyyGly: 4600 days

Substance: GlyProGlnThrGly (GPQTG; printed: GlyProGlnThrGly)
First-Order Deamidation Halftimes of GlyXxxGlnYyyGly: 4600 days

Substance: GlyProGlnTrpGly (GPQWG; printed: GlyProGlnTrpGly)
First-Order Deamidation Halftimes of GlyXxxGlnYyyGly: 13000 days

Substance: GlyProGlnTyrGly (GPQYG; printed: GlyProGlnTyrGly)
First-Order Deamidation Halftimes of GlyXxxGlnYyyGly: 10000 days

Substance: GlyProGlnValGly (GPQVG; printed: GlyProGlnValGly)
First-Order Deamidation Halftimes of GlyXxxGlnYyyGly: 6200 days

Substance: GlySerAsnAlaGly (GSNAG; printed: GlySerAsnAlaGly)
First-Order Deamidation Halftimes of GlyXxxAsnYyyGly: 24.1 days

First-Order Deamidation Halftimes of GlyXxxAsnYyyGly: 41.3 days
Substance: GlySerAsnAmCysGly

Substance: GlySerAsnArgGly (GSNRG; printed: GlySerAsnArgGly)
First-Order Deamidation Halftimes of GlyXxxAsnYyyGly: 59.7 days

Substance: GlySerAsnAspGly (GSNDG; printed: GlySerAsnAspGly)
First-Order Deamidation Halftimes of GlyXxxAsnYyyGly: 30.3 days

Substance: GlySerAsnCysGly (GSNCG; printed: GlySerAsnCysGly)
First-Order Deamidation Halftimes of GlyXxxAsnYyyGly: 60.2 days

Substance: GlySerAsnGluGly (GSNEG; printed: GlySerAsnGluGly)
First-Order Deamidation Halftimes of GlyXxxAsnYyyGly: 59.7 days

Substance: GlySerAsnGlyGly (GSNGG; printed: GlySerAsnGlyGly)
First-Order Deamidation Halftimes of GlyXxxAsnYyyGly: 0.96 days

Substance: GlySerAsnHisGly (GSNHG; printed: GlySerAsnHisGly)
First-Order Deamidation Halftimes of GlyXxxAsnYyyGly: 9.0 days

Substance: GlySerAsnIleGly (GSNIG; printed: GlySerAsnIleGly)
First-Order Deamidation Halftimes of GlyXxxAsnYyyGly: 285 days

Substance: GlySerAsnLeuGly (GSNLG; printed: GlySerAsnLeuGly)
First-Order Deamidation Halftimes of GlyXxxAsnYyyGly: 110 days

Substance: GlySerAsnLysGly (GSNKG; printed: GlySerAsnLysGly)
First-Order Deamidation Halftimes of GlyXxxAsnYyyGly: 55.5 days

Substance: GlySerAsnMetGly (GSNMG; printed: GlySerAsnMetGly)
First-Order Deamidation Halftimes of GlyXxxAsnYyyGly: 54.9 days

Substance: GlySerAsnPheGly (GSNFG; printed: GlySerAsnPheGly)
First-Order Deamidation Halftimes of GlyXxxAsnYyyGly: 52.2 days

Substance: GlySerAsnProGly (GSNPG; printed: GlySerAsnProGly)
First-Order Deamidation Halftimes of GlyXxxAsnYyyGly: 7060 days

Substance: GlySerAsnSerGly (GSNSG; printed: GlySerAsnSerGly)
First-Order Deamidation Halftimes of GlyXxxAsnYyyGly: 15.1 days
